Assay: yeast display, Sf9 membrane polyspecificity reagent, FACS + sequencing; frameworks hold sequencing errors
In short: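 Genes from sorted yeast were amplified by colony PCR, read by MiSeq 2 × 250 sequencing and filtered on CDR length. These cells carried a synthetic nanobody library in Saccharomyces cerevisiae BJ5465 and were sorted by FACS into low and high (top ~1%) gates on anti-HA and streptavidin fluorescence. Polyreactivity is labelled according to the gate of origin.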

| Sequence | polyreactivity (PSR sort gate) |
| --- | --- |
| QVQLVESGGGLVQAGGSLRLSCAASGSIFWYYAMGWYRQAPGKERELVAAISTSGTSTYYADSVKGRFTISRDNAKNTVYLQMNSLKPEDSAVYYCAKRSGARHRLMDYWGQGTQVTVSS | low polyreactivity |
| QVQLVESGGGLVQAGGSLRLSCAASGSIFWYYVMGWYRQAPGKERELVAAITISGAGTYYADSVKGRFTISRDNAKNTVYLQMNSLKPEDTAVYYCAARLLGHFYPFFLQGLSGFDYWGQGTQVTVSS | low polyreactivity |
| QVQLVESGGGLVQAGGSLRLSCAASGSIFYANAMGWYRQAPGKERELVAAISRSGGRTYYADSVKGRFTISRDNAKNTVYLQMNSLKPEDTAVYYCNAVYVSYTYQQTRPRYYYWGQGTQVTVSS | high polyreactivity |
| QVQLVESGGGLVQAGGSLRLSCAASGSIFYAYALGWYRQAPGKERELVAVISRGGITNYADSVKGRFTISRDNAKNTVYLQMNSLKPEDNAVYYCAAATSACGYLRRYGYWGQGTQVTVSS | low polyreactivity |
| QVQLVESGGGLVQAGGSLRLSCAASGSIFYAYAMGWSRQAPGKERELVATISSVGSTYYADSVKGRFTISRDNAKNTVYLQMNSLKPEDTAVYYCAKPRIVVYKTGYDYWGQGTQVTVSS | low polyreactivity |
| QVQLVESGGGLVQAGGSLRLSCAASGSIFYAYAMGWYRQAPGKEREFVAVISRGGITNYADSVKGRFTISRDNAKNTVYLQMNSLKPEDTAVYYCAAATSAWGYLRRYGYWGQGTQVTVSS | low polyreactivity |
| QVQLVESGGGLVQAGGSLRLSCAASGSIFYAYAMGWYRQAPGKERELVAAISSDGSTYYADSVKGRFTISRDNAKNTVYLQMTSLKPEDTAVYYCAASVLAPNAVSGSDYWGQGTQVTVSS | low polyreactivity |
| QVQLVESGGGLVQAGGSLRLSCAASGSIFYAYVMGWYRQAPGKERELVAAISSGGSTYYADSVKGRFTISRDNAKNTVYLQMNSLKPEDTAVYYCAVGRPSGWSYYTGGDYWGQGTQVTVSS | high polyreactivity |
| QVQLVESGGGLVQAGGSLRLSCAASGSIFYAYVMGWYRQAPGKERELVAAISSRGGSTHYADSVKGRFTISRDNAKNTVYLQMNSLKPEDTAVYYCAAARGKDGYWGQGTQVTVSS | high polyreactivity |
| QVQLVESGGGLVQAGGSLRLSCAASGSIFYDNAMGWYRQAPGKEREFVAAISTSGGSTYYADSVKGRFTISRDTAKNTVYLQMNSLKPEDTAVYYCAAEWPDLGYWWWYDVGYGYWGQGTQVTVSS | high polyreactivity |
| QVQLVESGGGLVQAGGSLRLSCAASGSIFYDNAMGWYRQAPGKERELVAAIDDSDRTYYADSEKGRFTISRDNAKNTVYLQMNSLKPEDTAVYYCARDRWKWHYGYDYWGQGTQVTVSS | low polyreactivity |
| QVQLVESGGGLVQAGGSLRLSCAASGSIFYDNAMGWYRQAPGKERELVAAITSTGGSTYYADSVKGRFTISRDNAKNTVYLQMNSLKPEDTAVYYCNTPTYLYWGFYTYDYWGQGTQVTVSS | low polyreactivity |
| QVQLVESGGGLVQAGGSLRLSCAASGSIFYDNGMGWYRQAPGKERELVAAISRGGTTNYADSVKGRFTISRDKAKNTVYLQMNSLKPEDTAVYYCNAETRFTYWGSWYDYWGQGTQVTVSS | low polyreactivity |
| QVQLVESGGGLVQAGGSLRLSCAASGSIFYDYAMGWYRQATRKERELVPAITNDDSSTYYADSVKGRFTISRDNAKNTVYLQMNSLKPEDTAVYYCRFKYAVAHHFWVYRYDYWGQGTQVTVSS | low polyreactivity |
| QVQLVESGGGLVQAGGSLRLSCAASGSIFYEYAMGWYRQAPGKEREFVASISWSGGITYYADSVKGRFTISRDNAKNTVYLQMNSLKPEDTAVYYCAADFSWYLYDYDYWGQGTQVTVSA | low polyreactivity |
| QVQLVESGGGLVQAGGSLRLSCAASGSIFYEYTMGWYRQAPGKERELVAVITSGGTTNYADSVKGRFTISRDNAKNTVYLQMNSLKPEYTAVYYCAAESKNKYDYWGQGTQVTVSS | high polyreactivity |
| QVQLVESGGGLVQAGGSLRLSCAASGSIFYFNAMGWYRQAAGKEWELVATISRRGGSTYYADSVKGRFTISRDNAKKTVYLQMNSLKPEDTAVYYCAADYYTLYPVYIKRYGYWGQGTQVTVSS | high polyreactivity |
| QVQLVESGGGLVQAGGSLRLSCAASGSIFYFNTMAWYRQAPGKERELVAVISRRGGSTYYADSVKRRFTISRDNAKNTVYLQMNSLKPEDTAVYYCNAEVFDLWRSFLSPYEYWGQGTQVTVSS | low polyreactivity |
| QVQLVESGGGLVQAGGSLRLSCAASGSIFYFNVMGWYRQAPGKERELVATITWRDASTNYADSVKARFTISRDNAKNTVYLQMNSLKPEDTAVYYCNADSDWGYFDYDYYYWGQGTEVTVSS | low polyreactivity |
| QVQLVESGGGLVQAGGSLRLSCAASGSIFYFYAMRWYRQAPGKERELVAAITDGGASTRYADSVKGRFTISRDYAKNTVYLHMNSLKPEDTAVYYCNARKYWKYGSYQYYWGQGTQVTVSW | high polyreactivity |
| QVQLVESGGGLVQAGGSLRLSCAASGSIFYGNAMGWYRQAPGKERELVAAIDGTGASTYYADSVKGRFTISRDNAKNTVYLKMNSLKPEDTAVYYCNKALTSKDYPVRTVERDYWGQGTQVTVSS | low polyreactivity |
| QVQLVESGGGLVQAGGSLRLSCAASGSIFYGNAMGWYRQAPGKERELVAAISARGGSTNYADSVKGRFTISRDNAKNTVYLQMNSLKPEDTAVYYCAADTPVWSGYWYDYWGQGTQVTVSS | low polyreactivity |

| Sequence | polyreactivity (PSR sort gate) |
| --- | --- |
| QVQLVESGGGLVQAGGSLRLSCAASGSIFYGNAMGWYRQAPGKERELVAAISKRGGSTYYADSVKGRFTISRDNAKNTVYLQMNSLKPEDTAVYYCAKATAGHTEYYSWGQGTQVTVSS | high polyreactivity |
| QVQLVESGGGLVQAGGSLRLSCAASGSIFYGNAMGWYRQAPGKERELVAAISNVGRTDYADSVKGRFTISRDNAKNTVYLQMNSLKPEDTAVYYCAAGVYSGYNRYFAPRSWFGYYYWGQGTQVTVSS | low polyreactivity |
| QVQLVESGGGLVQAGGSLRLSCAASGSIFYGNTMGWYRQAPGKERELVAAISSGGSTKYADSVKGRFTISRDNAKNTVYLQMNSLKPEDTAVYYCAKVAPRSSSSQEYYYWGQGTQVTVSS | low polyreactivity |
| QVQLVESGGGLVQAGGSLRLSCAASGSIFYGYAMGWYRQAPGKERELVAAISFSGGSTHYADSVKGRFTISRDNAKNTVYLQMNSLKPEDTAVYYCATDSGTPGDDEYWGQGTQVTVSS | low polyreactivity |
| QVQLVESGGGLVQAGGSLRLSCAASGSIFYGYAMGWYRQAPGKERELVAAISGNGGSTYYADSVKGRFTISRDNAKNTVYLQMNRLKPEDTAVYYCAVEVYHYGFEYDYWGLGTQVTVSS | high polyreactivity |
| QVQLVESGGGLVQAGGSLRLSCAASGSIFYGYAMGWYRQAPGKERELVAGISNGGSTNYADSVKGRFTISRDNAKNTVYLQMNSLKPEDTAVYYCNRDGTYVYHGGEYCGQGTQVTVSS | low polyreactivity |
| QVQLVESGGGLVQAGGSLRLSCAASGSIFYGYAMGWYRQAPGKERELVAVITDGGGSTYYADSVKGRFTISRDNAKNTVYLQMNSLKPEDTAVYYCAADSWGPYYYSSYSYDYWGQGTQVTVSS | low polyreactivity |
| QVQLVESGGGLVQAGGSLRLSCAASGSIFYHNAMGWYRQAPGKERELVAAITWSGSTTYYADSVKGRFTISRDNAKNTVYLQMNSLKPEDTAVYYCNAGNRHGHYDYWGQGTQVTVSS | low polyreactivity |
| QVQLVESGGGLVQAGGSLRLSCAASGSIFYHYAMGWYRQAPGKERELVAAISWRGASTYYADSVKGRFTISRDNAKNTVYLQMNSLKPEDTAVYYCARLSSSHPLYRDEYWGQGTQVTVSS | high polyreactivity |
| QVQLVESGGGLVQAGGSLRLSCAASGSIFYHYVMGWYRQAPGKERELVAAISSSGRTYYADSVKGRFTISRDNAKNTVYLQMNSLKPEDTAVYYCAADVHFGVGMDYWGQGTQVTVSS | low polyreactivity |
| QVQLVESGGGLVQAGGSLRLSCAASGSIFYIYAMGWYRKAPGKERELVASIDSGDSTNYADSVKGRFTISRDNAKNTVYLQMNSLKPEDTAVYYCNADTFSELTYYLYIGMDYWGQGTQVTVSS | low polyreactivity |
| QVQLVESGGGLVQAGGSLRLSCAASGSIFYIYAMGWYRQAPGKERELVAAITWRGGRTYYADSVKGRFTISRDNAKNTVYLQMNSLKPEDTAVYYCAALYAKYYYRYDYWGQGTQVTVSS | high polyreactivity |
| QVQLVESGGGLVQAGGSLRLSCAASGSIFYKYGMGWYRQAPGKVRVLVAAIRASGDSTYYADSVKGRFTISRDNAKNTVYLQMNSQKPEDTAVYYCAARPNQSYYGLYYYWGQGTQVTVSS | low polyreactivity |
| QVQLVESGGGLVQAGGSLRLSCAASGSIFYKYTMGWYRQAPGKERELVAAISRSGGSTYYADSVKGRFTISRDNAKNTVYLQMNSLKPEDTAVYYCATTRRVPGEYWGQGTQVTVSS | high polyreactivity |
| QVQLVESGGGLVQAGGSLRLSCAASGSIFYLNAMGWYRQAPGKERELVAAINRGGSTSYADSVKGRFTISRDNAKNTVYLQMNSLKPEDTAVYYCAADHGGVQYSVRYDYWGQGTQVTVSS | low polyreactivity |
| QVQLVESGGGLVQAGGSLRLSCAASGSIFYLYAMGWYRQAPGKERELVAAISSSGGRTYYADSVKGRFTISRDNAKNTVYLQMNSLKPEDTAVYYCAARYWAKYSYGYWGQGTQVTVSS | high polyreactivity |
| QVQLVESGGGLVQAGGSLRLSCAASGSIFYLYAMGWYRQAPGKERELVAAITSGDSTTYADSVKGRFTISRDNAKNTVYLQMNSLKPEDTAVYYCAADWPGLVGYHNSAENDYWGQGTQVTVSS | low polyreactivity |
| QVQLVESGGGLVQAGGSLRLSCAASGSIFYLYAMGWYRQAPGKERELVATITRGGSTNYADSVKGRFRISRDNAKNTDYVQMNSLKPEDTARYYCNARFFKPPYSKWSSRFDYWGQGTQVTVSS | high polyreactivity |
| QVQLVESGGGLVQAGGSLRLSCAASGSIFYPYAMGCYRQAPGKERELVAAITSSGGSTYYADSVKGRFTISRDNAKNTVYLQMNSLKPEDTAVYYCNAKGPYTAIYYKPFLGSTRFEYWGQGTQVTVSS | high polyreactivity |
| QVQLVESGGGLVQAGGSLRLSCAASGSIFYPYAMGWYRQAPGKERELVAAISYSGGSTYYADSVKGSFTISRDNAKNTVYLQMNSMKPEDTAVYYCNRRYWRRPYYKYDYWGQGTQVTVSS | high polyreactivity |
| QVQLVESGGGLVQAGGSLRLSCAASGSIFYPYAMGWYRQAPGKERELVAAITSSTGSTYYADSVKGRFTISRDHAKNTVYLQMNSLKPEDTAVYYCAAAGYWSYFMMDYWGQGTQVTVSS | low polyreactivity |

— the nanobody polyreactivity screen of Harvey et al. (2022)
